Experimental data published in publication PMC5356841 (2016).

Target: individual catalytic domain of human MT1-MMP (MT1-CAT) (human, UniProt P50281 114-287, biotin (EZ-Link sulfo-NHS-LC-biotin, 1:20 enzyme-biotin molar ratio) in the Fab binding ELISA only; unlabelled in the competition ELISA and the cleavage assays)
Assay: ELISA

Kd [nM] | Binder
21 | 2B5 Fab (Fab, V domains shown) VH: EVQLVESGGGLVQPGGSLRLSCAASGFNLSYSSMHWVRQAPGKGLEWVASIYPYSGYTYYADSVKGRFTISADTSKNTAYLQMNSLRAEDTAVYYCARIGVNAWAVKMSQRMLATRGSGWYVMDYWGQGTLVTVSS VL: DIQMTQSPSSLSASVGDRVTITCRASQSVSSAVAWYQQKPGKAPKLLIYSASSLYSGVPSRFSGSRSGTDFTLTISSLQPEDFATYYCQQSSSYPYSPITFGQGTKVEIK
45 | 3E9 Fab (Fab, V domains shown) VH: EVQLVESGGGLVQPGGSLRLSCAASGFNLYYSSMHWVRQAPGKGLEWVASIYPSYGSTYYADSVKGRFTISADTSKNTAYLQMNSLRAEDTAVYYCARNGRYPGFLKRAHKRLLNFKAYVMDYWGQGTLVTVSS VL: DIQMTQSPSSLSASVGDRVTITCRASQSVSSAVAWYQQKPGKAPKLLIYSASSLYSGVPSRFSGSRSGTDFTLTISSLQPEDFATYYCQQGSWYLITFGQGTKVEIK
